Laboratory results taken from US6645504B1, “Bystander suppression of type I diabetes by oral administration of glucagon” (AutoImmune Inc., priority 1987, dated 2003).

Experiments:
MBP specific T-cells = test: In vitro suppression of proliferative responses by supernatants; assay type: cell-based, Lewis rats; settings: supernatants of splenocytes from fed animals stimulated in vitro with MBP; FIG. 1
Protocol: Induction Of Oral Tolerance. Rats were fed 1 mg of MBP dissolved in 1 ml PBS, or PBS alone, by gastric intubation using a 18-gauge stainless steel animal feeding needle (Thomas Scientific, Swedesboro, N.J.). Animals were fed five times at intervals of 2-3 days with the last feeding two days before immunization. The purpose of this was to induce tolerance.
In Vitro Suppression Of Proliferative Responses By Supernatants. Spleen cells were removed 7-14 days after the last feeding and a single cell suspension prepared by pressing the spleens through a stainless steel mesh. For preparation of supernatants, spleen cells at a concentration of 5×10^6 cells/ml were stimulated in vitro with MBP (50 μg/ml) in 10 ml of proliferation medium. Proliferation medium consisted of RPMI 1640 (GIBCO, Grand Island, N.Y.) supplemented with 2×10^−5 M 2-mercaptoethanol, 1% sodium pyruvate, 1% penicillin and streptomycin, 1% glutamine, 1% HEPES buffer, 1% nonessential amino acids and 1% autologous serum. […] Cultures were harvested onto fiberglass filters using a multiharvester and counted using standard liquid scintillation techniques.
Purification Of T-Cell Subsets. […] The quantity of magnetic beads used was calculated as being 10 times the estimated target cell population. […]

[1] = system: Cells, cytokines and activation markers in rat brain; test: Immunohistology of cells, cytokines and activation markers in sections of rat brain; assay type: in vivo, Lewis rats; design: key to IL-4 / TGF-β / PGE: −: absence of labelling; +/−: <10 cells/section or trace labelling; +: few small foci; 2+: multiple foci; 3+: multiple large perivascular collections and diffuse submeningeal staining; settings: brain sections at day 14 (peak of disease), n = 3/group
Protocol: The effect of oral administration of MBP in rats induced for EAE was analyzed in terms of the cells and factors present in the brains of fed and control rats. Lewis rats were fed MBP five times then immunized with MBP/CFA and their brains were examined immunohistologically at day 14 (peak of disease) and compared to brains from immunized control-fed animals harvested at the same time, and to brains of naive animals. Cryostat sections of cortex and cerebellum were fixed in paraformaldehyde-lysine-periodate for determination of leukocytes and activation antigens, or in acetone for the labelling of cytokines, and stained by a peroxidase-antiperoxidase method (Hancock, W. W., et al., J. Immunol. 138:164, 1987). Results of cytokine and endothelial labelling in 20 consecutive fields were judged as (−) absence of labelling, (+/−) <10 cells/section or trace labelling, (+) few small foci, (2+) multiple foci, and (3+) multiple large perivascular collections and diffuse submeningeal staining.

EAE = EAE induced by guinea pig MBP 71-90, feeding of MBP peptides; assay type: in vivo, Lewis rats; settings: fed; FIG. 14
Protocol: The effects of feeding various peptides to Lewis rats induced for EAE by guinea pig MBP residue nos. 71-90 (the major immunodominant epitope of guinea pig MBP as shown in Example 3 above) were also studied.
EAE was induced by immunizing with 0.25 mg of guinea pig MBP amino acid residue nos 71-90 in Complete Freund's Adjuvant and the effect of feeding various guinea pig MBP peptides on EAE was examined.

DTH responses = DTH responses in animals fed MBP or MBP peptides; assay type: in vivo, Lewis rats; settings: FIG. 15
Text: Guinea pig MBP peptide 131-150 was ineffective in this case. Peptides were also fed with STI which prevents their breakdown by gastric juices and enhances their biological effect. DTH responses to whole MBP were suppressed by feeding MBP or any one of the MBP-peptides 21-40, or 71-90.

B1: MBP: Guinea pig myelin basic protein purified from brain tissue (protein, UniProt P25188 1-167, looked up)
Myelin basic protein: ASQKRPSQRHGSKYLATASTMDHARHGFLPRHRDTGILDSIGRFFGSDRAAPKRGSGKDSHHAARTTHYGSLPQKSQRSQDENPVVHFFKNIVTPRTPPPSQGKGRGLSLSRFSWGAEGQKPGFGYGGRADYKSKGFKGAHDAQGTLSKIFKLGGRDSRSGSPMARR
For B1, the “proliferation of the MBP line after addition of supernatants” value (MBP specific T-cells) was “reduction in the proliferation of the MBP line”, the “IL-2R(p55), PCNA” value [1] was “+/− (<10 cells/section or trace labelling)” and the IL-4 [1] was “−”. The PGE [1] was “−”, the TGF-β [1] was 2+ and the “down-regulation of EAE induced by guinea pig MBP 71-90” value (EAE) was “equally effective in down-regulating EAE”. The “DTH responses to guinea pig MBP peptide 71-90” value (DTH responses) was “suppressed” and the “DTH responses to whole MBP” value (DTH responses) was “suppressed”.
